Data as given in patent US20100310509A1 (published 2010).

T1: gp130 bound OSM-WT (gp130:OSM-WT) (human, UniProt P40189 23-619)
T1 construct: extracellular domain; Non-covalent complex formed on the plate: gp130 coated, then 200 nM OSM-WT; also called OSM-WT with gp130; not shown: N-terminal FLAG tag
T1 sequence 1: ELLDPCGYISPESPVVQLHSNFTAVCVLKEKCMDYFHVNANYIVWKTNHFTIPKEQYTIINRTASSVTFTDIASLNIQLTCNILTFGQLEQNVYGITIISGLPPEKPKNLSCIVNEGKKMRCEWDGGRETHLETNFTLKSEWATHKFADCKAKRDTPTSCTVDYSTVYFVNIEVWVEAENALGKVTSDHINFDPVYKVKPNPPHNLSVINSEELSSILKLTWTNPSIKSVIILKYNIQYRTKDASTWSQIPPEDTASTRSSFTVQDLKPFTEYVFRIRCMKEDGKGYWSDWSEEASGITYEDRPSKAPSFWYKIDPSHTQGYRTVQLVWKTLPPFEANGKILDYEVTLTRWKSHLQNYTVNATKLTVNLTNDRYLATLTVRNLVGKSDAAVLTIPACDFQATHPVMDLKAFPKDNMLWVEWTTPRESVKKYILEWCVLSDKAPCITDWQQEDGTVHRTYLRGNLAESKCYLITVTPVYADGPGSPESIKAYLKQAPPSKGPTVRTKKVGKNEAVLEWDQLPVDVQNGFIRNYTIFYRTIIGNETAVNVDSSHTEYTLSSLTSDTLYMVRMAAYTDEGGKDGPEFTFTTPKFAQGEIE
T1 sequence 2: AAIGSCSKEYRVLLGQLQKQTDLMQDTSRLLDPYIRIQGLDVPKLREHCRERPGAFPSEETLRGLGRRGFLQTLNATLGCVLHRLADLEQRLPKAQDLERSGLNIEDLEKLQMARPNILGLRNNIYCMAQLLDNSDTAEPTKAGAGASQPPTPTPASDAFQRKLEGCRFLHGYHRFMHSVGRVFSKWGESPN

B1: gp130 bound LIF (gp130:LIF) (other)
chain 1: T1 sequence 1
chain 2: not shown
notes: Non-covalent complex formed on the plate: gp130 coated, then saturating cytokine; also called LIF with gp130
B2: gp130 bound OSM-M1 (gp130:OSM-M1) (other, human)
chain 1: T1 sequence 1
chain 2: AAIGSCSKEYRVLLGQLQKQTDLMQDTSRLLDPYIRIQGLDVPKLREHCRERPGAFPSEETLRGLGRRGFLQTLNATLGCVLHRLADLEQRLGAPSGLNIEDLEKLQMARPNILGLRNNIYCMAQLLDNSDTAEPTKAGAGASQPPTPTPASDAFQRKLEGCRFLHGYHRFMHSVGRVFSKWGESPN
notes: extracellular domain; Non-covalent complex formed on the plate: gp130 coated, then 200 nM OSM-M1; also called OSM-M1 with gp130; not shown: N-terminal FLAG tag
B3: gp130 bound OSM-M2 (gp130:OSM-M2) (other, human)
chain 1: T1 sequence 1
chain 2: AAIGSCSKEYRVLLGQLQKQTDLMQDTSRLLDPYIRIQGLDVPKLREHCRERPGAFPSEETLRGLGRRGFLQTLNATLGCVLHRLADLEQRLGGGNIEDLEKLQMARPNILGLRNNIYCMAQLLDNSDTAEPTKAGAGASQPPTPTPASDAFQRKLEGCRFLHGYHRFMHSVGRVFSKWGESPN
notes: extracellular domain; Non-covalent complex formed on the plate: gp130 coated, then 200 nM OSM-M2; also called OSM-M2 with gp130; not shown: N-terminal FLAG tag
B4: soluble human LIFR (leukemia inhibitory factor receptor) (receptor, UniProt P42702 45-833, looked up)
chain: QKKGAPHDLKCVTNNLQVWNCSWKAPSGTGRGTDYEVCIENRSRSCYQLEKTSIKIPALSHGDYEITINSLHDFGSSTSKFTLNEQNVSLIPDTPEILNLSADFSTSTLYLKWNDRGSVFPHRSNVIWEIKVLRKESMELVKLVTHNTTLNGKDTLHHWSWASDMPLECAIHFVEIRCYIDNLHFSGLEEWSDWSPVKNISWIPDSQTKVFPQDKVILVGSDITFCCVSQEKVLSALIGHTNCPLIHLDGENVAIKIRNISVSASSGTNVVFTTEDNIFGTVIFAGYPPDTPQQLNCETHDLKEIICSWNPGRVTALVGPRATSYTLVESFSGKYVRLKRAEAPTNESYQLLFQMLPNQEIYNFTLNAHNPLGRSQSTILVNITEKVYPHTPTSFKVKDINSTAVKLSWHLPGNFAKINFLCEIEIKKSNSVQEQRNVTIKGVENSSYLVALDKLNPYTLYTFRIRCSTETFWKWSKWSNKKQHLTTEASPSKGPDTWREWSSDGKNLIIYWKPLPINEANGKILSYNVSCSSDEETQSLSEIPDPQHKAEIRLDKNDYIISVVAKNSVGSSPPSKIASMEIPNDDLKIEQVVGMGKGILLTWHYDPNMTCDYVIKWCNSSRSEPCLMDWRKVPSNSTETVIESDEFRPGIRYNFFLYGCRNQGYQLLRSMIGYIEELAPIVAPNFTVEDTSADSILVKWEDIPVEELRGFLRGYLFYFGKGERDTSKMRVLESGRSDIKVKNITDISQKTLRIADLQGKTSYHLVLRAYTDGGVGPEKSMYVVTKENS
notes: extracellular domain; Bought; also called soluble LIFR

How the values were obtained:
[1] = target: B4; assay: ELISA, apparent KD (KD,App), gp130 coated, saturating cytokine, soluble LIFR titrated (with gp130)
Experimental: (§1) FIG. 13 graphically depicts an ELISA analysis of soluble OSMR and soluble LIFR binding with LIF, OSM-WT, OSM-M1 and OSM-M2 or gp130 bound LIF (gp130:LIF), OSM-WT (gp130:OSM-WT), OSM-M1 (gp130:OSM-M1) and OSM-M2 (gp130:OSM-M2). Cytokines (LIF, OSM-WT, OSM-M1 or OSM-M2) immobilized on an ELISA plate in the absence (A,C) or presence (B,D) of gp130 were treated with various concentrations of soluble OSMR (A,B) or soluble LIFR (C,D). Equilibrium KD values were estimated using a non-linear curve fitting to the binding data using GraphPad Prism (Graph Pad Software. LaJolla, Calif.). In addition, see Table 3.
(§2) Enzyme-linked immunosorbent assay (ELISA): ELISA was used to evaluate the equilibrium binding strength of the interaction between the cytokines and their receptors. This technique has traditionally been used as a sensitive method to quantify the binding affinities between two interacting proteins. However, unlike in SPR, ELISA involves immobilization of the proteins on a flat plastic surface driven by hydrophobic and ionic interactions. This might cause some distortion in the 3 dimensional structure of immobilized protein which leads to inaccuracies in the estimation of dissociation constants. It is thus important to bear in mind that the values estimated using this technique are to be used only for comparison between species but not as true equilibrium binding constants. The results obtained using this technique will thus be presented as apparent equilibrium dissociation constants (K_{D,App}). For direct interaction studies, cytokines (LIF, OSM-WT, OSM-M1 or OSM-M2) were immobilized on the 96 well ELISA plate by incubating the wells with 200 μl of 5 nM cytokine solution in PBS, pH 7.4 overnight at 4° C. The wells were then blocked with blocking buffer (4% BSA in PBS) for 1 hour at room temperature. After washing with 250 μl of washing buffer (0.05% Tween-20 in PBS) 3 times, the cytokines were treated with a series of concentrations of soluble human LIFR (Catalog #249-LR-050/CF, R&D Systems, Minneapolis, Minn.) or OSMR (Catalog #4389-OR-050, R&D Systems, Minneapolis, Minn.) in 150 μl of blocking buffer for 2 hours.

[2] = target: T1, gp130 bound OSM-WT (gp130:OSM-WT); assay: as above
Experimental: as §1, §2

Row | Kd [1] [nM] | Kd [2] [nM] | Binder
1 | 10.3 | – | B1
2 | 12.6 | – | B2
3 | 9.13 | – | B3
4 | – | 70.3 | B4
